Experimental data published in article PMC7105484, “Crystal structures of REF6 and its complex with DNA reveal diverse recognition mechanisms” (Cell Discovery, 2020).

Experiments:
Experiment in all cases: MST; MST: 20 mM HEPES pH 7.3, 150 mM NaCl, 0.2 mM TCEP, 0.5% CA-630, 25 C; EMSA: 30 uM protein, 10 uM dsDNA, 20 mM Tris pH 8.0, 100 mM NaCl, 2.5 mM MgCl2, 0.1% CA-630, 10% glycerol, 1 uM ZnSO4, 1 mM DTT, 4 C
REF6 D1342A = biological target: T1, REF6 D1342A (Arabidopsis thaliana, UniProt Q9STM3 1223-1360, D1342A); settings: protein: recombinant; tags: His6-MBP or GST, TEV-cleavable; label: FAM in MST; none in crystal and EMSA; 5' overhang 1 nt on both strands, 15 bp
T1 sequence: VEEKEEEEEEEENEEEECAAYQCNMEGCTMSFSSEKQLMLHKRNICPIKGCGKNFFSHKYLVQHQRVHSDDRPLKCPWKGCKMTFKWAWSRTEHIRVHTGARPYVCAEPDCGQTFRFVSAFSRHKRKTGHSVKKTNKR

REF6 ZnF1-4 WT = biological target: T2, REF6 ZnF1-4 WT (Arabidopsis thaliana, UniProt Q9STM3 1223-1360); settings: protein: recombinant; tags: His6-MBP or GST tag, TEV-cleavable (cleaved when necessary); label: FAM in MST; none in crystal and EMSA; 5' overhang 1 nt on both strands, 15 bp
T2 sequence: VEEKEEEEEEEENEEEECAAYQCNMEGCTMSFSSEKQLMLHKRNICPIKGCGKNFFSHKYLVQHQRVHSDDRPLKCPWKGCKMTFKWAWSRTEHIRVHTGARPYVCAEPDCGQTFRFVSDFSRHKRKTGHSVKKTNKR

REF6 W1309A = biological target: T3, REF6 W1309A (Arabidopsis thaliana, UniProt Q9STM3 1223-1360, W1309A); settings: protein: recombinant; tags: His6-MBP or GST, TEV-cleavable; label: FAM in MST; none in crystal and EMSA; 5' overhang 1 nt on both strands, 15 bp
T3 sequence: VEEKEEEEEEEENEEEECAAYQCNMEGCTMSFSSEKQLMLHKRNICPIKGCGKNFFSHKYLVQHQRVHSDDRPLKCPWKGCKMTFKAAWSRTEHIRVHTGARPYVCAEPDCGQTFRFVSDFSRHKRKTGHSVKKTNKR

REF6 V1340A = biological target: T4, REF6 V1340A (Arabidopsis thaliana, UniProt Q9STM3 1223-1360, V1340A); settings: protein: recombinant; tags: His6-MBP or GST, TEV-cleavable; label: FAM in MST; none in crystal and EMSA; 5' overhang 1 nt on both strands, 15 bp
T4 sequence: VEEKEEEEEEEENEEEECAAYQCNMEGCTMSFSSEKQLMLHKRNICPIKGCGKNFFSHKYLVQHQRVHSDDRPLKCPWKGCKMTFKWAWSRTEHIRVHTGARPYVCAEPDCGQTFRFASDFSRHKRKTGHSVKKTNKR

REF6 Y1282A = biological target: T5, REF6 Y1282A (Arabidopsis thaliana, UniProt Q9STM3 1223-1360, Y1282A); settings: protein: recombinant; tags: His6-MBP or GST, TEV-cleavable; label: FAM in MST; none in crystal and EMSA; 5' overhang 1 nt on both strands, 15 bp
T5 sequence: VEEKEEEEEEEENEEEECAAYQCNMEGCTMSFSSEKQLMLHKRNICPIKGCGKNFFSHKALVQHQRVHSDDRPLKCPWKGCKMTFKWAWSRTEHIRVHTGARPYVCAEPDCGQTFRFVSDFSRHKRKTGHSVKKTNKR

REF6 F1339A = biological target: T6, REF6 F1339A (Arabidopsis thaliana, UniProt Q9STM3 1223-1360, F1339A); settings: protein: recombinant; tags: His6-MBP or GST, TEV-cleavable; label: FAM in MST; none in crystal and EMSA; 5' overhang 1 nt on both strands, 15 bp
T6 sequence: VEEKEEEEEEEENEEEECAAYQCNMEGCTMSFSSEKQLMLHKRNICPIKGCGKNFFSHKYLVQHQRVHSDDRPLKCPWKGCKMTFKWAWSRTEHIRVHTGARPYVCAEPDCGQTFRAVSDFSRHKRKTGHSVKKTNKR

REF6 E1315A = biological target: T7, REF6 E1315A (Arabidopsis thaliana, UniProt Q9STM3 1223-1360, E1315A); settings: protein: recombinant; tags: His6-MBP or GST, TEV-cleavable; label: FAM in MST; none in crystal and EMSA; 5' overhang 1 nt on both strands, 15 bp
T7 sequence: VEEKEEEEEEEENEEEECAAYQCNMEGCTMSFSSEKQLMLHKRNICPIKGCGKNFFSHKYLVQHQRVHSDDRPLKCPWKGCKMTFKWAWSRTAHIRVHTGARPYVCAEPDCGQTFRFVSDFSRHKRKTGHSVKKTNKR

B1: NAC004 m5 (dsDNA)
DNA 1: CTTTCTCTGTTTTGTC
DNA 2: GGACAAAACAGAGAAA
Binder B1 has a Kd (REF6 D1342A) of 1.3 µM, a Kd (REF6 ZnF1-4 WT) of 0.4 µM and a Kd (REF6 W1309A) of 58.5 µM. For the same binder, the Kd (REF6 V1340A) was 0.5 µM, the Kd (REF6 Y1282A) was 1.1 µM and the Kd (REF6 F1339A) was 0.5 µM. The Kd (REF6 E1315A) was 3.7 µM.
